The target of this assay is Neuropeptide Y (TAMRA-NPY) (Sus scrofa), P01304.

B1: Neuropeptide Y receptor type 2 (Y2R-A202C), P49146 (protein)
chain: MGPIGAEADENQTVEEMKVEQYGPQTTPRGELVPDPEPELIDSTKLIEVQVVLILAYASIILLGVIGNSLVIHVVIKFKSMRTVTNFFIANLAVADLLVNTLALPFTLTYTLMGEWKMGPVLCHLVPYAQGLAVQVSTITLTVIALDRHRAIVYHLESKISKRISFLIIGLAWGISALLASPLAIFREYSLIEIIPDFEIVCCTEKWPGEEKSIYGTVYSLSSLLILYVLPLGIISFSYTRIWSKLKNHVSPGAANDHYHQRRQKTTKMLVAVVVVFAVSWLPLHAFQLAVDIDSQVLDLKEYKLIFTVFHIIAMASTFANPLLYGWMNSNYRKAFLSAFRCEQRLDAIHSEVSVTFKAKKNLEVRKNSGPNDSFTEATNV
As for B1, the dissociation constant (Kd) (as a rule, the free concentration of one partner at which half of the binding sites on the other are occupied at equilibrium, for simple one-to-one binding) was determined as 32 nM.

The values above are taken from publication PMC9919357.
